In the DeepSol protein solubility set:

assay: soluble on expression in E. coli; label from the status in PepcDB or PDB records

Sequence	soluble on expression in E. coli
MENTVLNLDSDVIHACEAIFQPIRLVYTHAQTPDVSGVSMLEKIQQILPQIAKNAESAEQLRRVPDENIKLLKEIGLHRAFQPKVYGGLEMSLPDFANCIVTLAGACAGTAWAFSLLCTHSHQIAMFSKQLQDEIWLKDPDATASSSIAPFGKVEEVEGGIILNGDYGWSSGCDHAEYAIVGFNRFDADGNKIYSFGVIPRSDYEIVDNWYAQAIKSSGSKMLKLVNVFIPEYRISKAKDMMEGKSAGFGLYPDSKIFYTPYRPYFASGFSAVSLGIAERMIEAFKEKQRNRVRAYTGANVGLATPALMRIAESTHQVAAARALLEKTWEDHRIHGLNHQYPNKETLAFWRTNQAYAVKMCIEAVDRLMAAAGATSFMDNSELQRLFRDAHMTGAHAYTDYDVCAQILGRELMGMEPDPTMV	soluble
MGSDKIHHHHHHMTTVNETTSQAGLALAQAGSNSAAQGIQDQFLTLLVTQLRNQDPLNPMENAELTSQLAQISTVEGINNLKNTMLAISGQIDVSQSMDAVSMIGKGVLMPGDKVSLGADPNDPAQRGATPFGIDLQGDATKVTVKVLDPSGAVVRTMELGDLKTGVHTLQWDGNNDGGQPLADGKYSITVSASDADANPVKTEALTYGQVKSVAYSTNGLRLDLGLAGQISMLDVRKVIGASGSA	not soluble
MAHHHHHHSLCKAFCSCYSYHYHHREKMGIKEYYDKLAKSYDKLYKNKYMRIVEREIIQKEIKDGDFVLDIGCGTGEQLKILNNAVGLDISLEMAKIAKNKTNKPVVVANAEFLPFKNKSFDKAISFFGALNHCNLKRALREVNRVLKDDGIFIFTVANIYDIKWIIKNILKGNFKKVKNAMKKRKGTITKVIDGEKIKVKTRFYDFKEVEDALKKEGFEVVYTFGTNITNSPLDKFIYKSFLKNFASYIGFVAKKVKNREG	not soluble
MGSDKIHHHHHHMSISPNPNIAEIAALFGETSRAAILTSLLDGRLHTASDLAYRAGITPQTASFHLGKLAEGGLVSVEKHGRHRYYQLANGEVASLLESFLVISPQPEVKSLKQSAQMVMLQKARTCYDHLAGKLGVGITDSMLDSGYLKKDGKEFVLTEAGVQFVINFGLDLESIKKKRRSLSHACLDWSERSYHLAGALGNQLMQHFFDLGWITPLPGIRAVKVTDQGKAGFKQYFNISL	not soluble
MDEYQQTIRALSDRIVVAQTPIRILDAVKWDDTVRKNFLAAKGKALPAVDRAYYENRPLGFDSVALKQEFQNIERDVTRQLGQFNPVGQIMRRMCREYRMVVRMLEARGTPDFGLISQELYGAASDAFHAGDPTLADLGLMLSDYLNNIAGRGDLKDEPKILTAKDAVSLLQSRLNRVFGEAEETIRVFESDGIVADAAAGADYIKIRTDAMFNERDVRALEVHEGLVHVGTTLNGQNQPICTFLSKGPPSSTVTQEGLAILMEVIAFASYPSRLRKLTNRTRAIHMAEQGADFLQVFEFYREQGFGMSESYGNASRVFRGSVPDGLPFTKDLSYLKGFIMVYNYIQLAVRKGKLEQVPLLFCGKTTLEDMRTLRQLVDEGLVVAPKYLPEQFRDMNALSAWMCFSNFLNHLSLDRIEADYSNILLEHHHHHH	soluble
MSSQQQESEASGYNTSASSEFGSLEDSHQFVSPVTRHASKRRAVENVDHLDELMKSSMVLSPEKRLRLNTSNDSNLVRNTARSPDSSMNGRPQTRRSTSSDIEISPRVRAMRSTSGSSMDLVRTVSSFCTDSISPKFFTNHGSTTRKRTENGSIYSRHRLGATFSPLVAGAKRKMATPSQSLKRQEKQSPLESRHGGLRSRGTPQRKLLLCDRLKVLN	not soluble
SCEGPSRISGPIPPDPTLCPDNYRRPTSAQGRLEGNALKLDLLTSDRALDTTAPRGPCIGPGAGEILERGQRGVGDVLLQLEGISLGPGASLKRKDPKDHEKENLRRIREIQKRFREQERSREQGQPRPLKALWRSPKYDKVESRVKAQLQEPGPASGTESAHFLRAHSRCGPGLPPPHVSSPQPTPPGPEAKEPGLGVDFIRHNARAAKRAPRRHSCSLQVLAQVLEQQRQAQEHYNATQKGHVPHYLLERRDLWRREAEARKQSQPDPAMPPGHTRMPENQRLETLTKLLQSQSQLLRELVLLPAGADSLRAQSHRAELDRKLVQVEEAIKIFSRPKVFVKMDD	soluble
MSLNRRELLERISEYQFACIELNLYLDNNPRDKKALDSYNRYCDKFTQAVCDYESKYGALTNFGYESSEYPWSWISEPWPWDKSFYK	soluble
MAHHHHHHMLLGSFADFSVNGASTVDMPLAPSLEYVARMLRELPSVLHAEQWPTQFVCDSNAPLSGSGTELRNAEAITSSSSSVLERTLLGISPLSGTDAAVSQFLERLGGATTSLALRSLFDLCHADVWNLLGVAATSPISRLAALEKLAAAANGSASAPGPCRPVLDAETLEFKDILVWAWNRQYGCVGLRRLFFEMQVLFYRYAMNAQATSKQSRAGNGATLRDVCELWAVWRLSLQKWSAAFLAKLGTHEQTADVLDASTLRADACDLMRQHAIAVSGLAEVQRMALRVITKLQTVDAKGWFAVPAFDLVNVDFTSVRYWISSPVFARKSKREAYRSLCRTLERMVDSCVQKYGPTHAFSDVITTVRQQLVDVARAEGLL	not soluble
MSMSVILRKSLIEVLNKKNEKKKDVAREISTSQQSLSDWTSQNNVKPVTIENALRLSDHFRDSTFTMEVIHQFFGMFKTCDGDVYRKDPSSLDRLQKIESNERKALKHDIERIVLKNPEYLSEQDISKIVAYANEYLDEVIVEITLLSSLCDLASIDIRYLSEQRFPYWEQLGYMRKENTNGTRSY	not soluble
MAAKHVLFSTDARQKMLSGVNLLANAVKVTLGPKGRHVVLNKSYGAPTITKDGVSVAKEIELADKFENMGAQMLKQVASKANDEAGDGTTTATVLAQALINEGMKAVAAGMNPMDLKRGIDKAVSAAVEKLHQLAKPCSDTQSITQVGAISANSDHAIGEIIAQAMEKVGRNGVITVEEGQALQNELSVVEGMQFDRGYLSPYFINQPKAGCVELENPYVLLVDKKISHIRELLPILESVAKASRSLLIIAEDVDGDALATLVVNSMRGIIKVAAVKAPGFGEQRKAMLEDIAALTAGRVISEEIGLELEKVTLDDLGSAKKVTINKDNTTIVDGAAEPSALQDRIAQIQHQLEHTTSQYDRDKLQQRIAKLSGGVAVIKIGAATEVEMKEKKDRVDDALHATRAAVEEGIVAGGGVALLKIANELSNLQGDNDDQNVGIRIALRAMEEPLRQIAINAGDEASVIANQVKTGDEHYGYNAATGQFGNMLEMGILDPAKVTRSALQFAASIAGLMITTEAMVSEVDKESAA	not soluble
MSTAFAIPLFQFSPKPLHWKKRIAMWKAEIMDIKTTETGSRGEYSATIDGHKAQMTYSRTSPSLIIIDHTGVPDALRGKGVGQALAAHAIDEARKGGWKIIPLCPFFKAQTLRHADWADVIQGLEHHHHHH	soluble
MASEMKFAWLLAPDTYWDEKKTFITAALESGIDHIVDTADSGRIKKLGNLTLISPDEDADIVLVGRDGEGDGTLELPETLEYSRDIEMASELSESGRQVAAYVEIRSKAHEELARRLGRVVDYLILVGEDWKIIPLENIIADLQEEDVKLIAAVADVDEARVALETLEHGTDGVLIEPADISQIKDIAALLENIESETYELKPATITRIEPIGSGDRVCVDTCSIMGIGEGMLVGSYSQGLFLVHSESLESEYVASRPFRVNAGPVQAYVMVPGGRTRYLSELETGDEVIIVDRDGRSRSAIVGRVKIEKRPLMLVEAEYEGMKVRTLLQNAETIRLVNDKGEPVSVSELGEGDRVLVYFDESARHFGMAIKETIIEKLEHHHHHH	soluble
MGHHHHHHGGHMSLGALILSDRDIRALLAIGDLVVEPLSGDTVRENGLDLRLGRGFCRFKRSDRVLDPRAPGSPGEFYECGEGDEIIVGPGEHMLLHTQEYIRLPGYVAGLVNLRSTWARTGIYIPATVVDAGFEGQLTIEVVGSGFPVKLYPGDRFLHLVLVKLQSPAMNPYRGRYQGQRGVRLPKLFAKNTGEGGS	soluble
MAHHHHHHMDEKPRLIEHTSACRGTADVLILSGFPWYVTEGQVRKYLTEIHPSNIAPLTVRLYTNPANGSSRGICFVEYCPKQSNTGGASQGIKNEFPERKQKGEAEDIAALMKLRIEATAYERHYIRVLLYRLTNRNWDRGGRLPDLPTDPPPLATSRGGVLEGYGDEGFTVRCSALLGLANTVTPNGIASMQTLRKRFREEAAKAAMPNKSDEGYPGSSAARQ	not soluble
MLKIIRAGMYTTVQDGGRHGFRQSGISHCGALDMPALRIANLLVGNDANAPALEITLGQLTVEFETDGWFALTGAGCEARLDDNAVWTGWRLPMKAGQRLTLKRPQHGMRSYLAVAGGIDVPPVMGSCSTDLKVGIGGLEGRLLKDGDRLPIGKSKRDSMEAQGVKQLLWGNRIRALPGPEYHEFDRASQDAFWRSPWQLSSQSNRMGYRLQGQILKRTTDRELLSHGLLPGVVQVPHNGQPIVLMNDAQTTGGYPRIACIIEADMYHLAQIPLGQPIHFVQCSLEEALKARQDQQRYFEQLAWRLHNEN	soluble
MSLIRSMTGFGRASNDNGRLGFNVEIKSVNHRYFDLNIKLPRNLISLEEKIRKEVGNKIKRGKVDIFITQNVYDSSTTNVNLNKGLAYNYCECLKQIRDDFNVLDDISVSLISKFPDVITVTQNEEDLDEISSLLLKPINEAVDTMLSMREKEGARLKEDIEGKLTNIEELLVNVEKRAPYTVENYRNKLEERIKDLLVDNQVDEAKLAMEVTIFADKSCIDEEIVRLKSHISQFKSTLSENEPVGRKLDFIVQEMNREANTINSKSNDIDIVHCVLDIKNEIEKIREQIQNIEEGHHHHHH	soluble
QTIFRVQTPYTHNGYMKTECYAFDFAPDRTLRVLAEAAKVSYKAGKQSESDRKLLGDFLNFCPIISIEGSRMKPYDVNTMLGQLKRAQIEKVVQDGFENGALYNDELLKLTEVELHDFDELKGIIGKTKAMAKSGDIDINHQGLTHEQYEEKERLEKRKKKGLTPEEKKRLDELKAKGDQRREAISILRGISIRMPLMLYGAEMKDEDKELTIDNFANLVDEQSWQEFMPRGVTKAVFRRFKRYYDPDIFREAGKRIREMARMADKFTIEERIGRIASIFSTFRNPDKETVLTPWRVVNMHLGDSIGGYCFMSEDFSTPIALPRYIEHQGITNEVFHPKSIILEINSKSGLYPLYAAYNIYRTRVEEAREKYGDVTRAFALQLWDRTLEENIFVVCKTPMARYITMRTLRGFRDVVTHTEHYPDLIENITSQPDSVVNMLRSGKRFWKINNDENMKIDAIIGNPPYQVMNQGKGNGSDPIYHKFFDLAMVLAPQGTLIHPARFLFNAGKTPKEWNEKMLSDKHYRVVDYWPNSAEVFPTVDVKGGIATSYWNKKMILGPIGMFSAFDELHHILYKVEQTNPLPFSNLVAPRELYRITDELYQEHPDLNGRQSAGHKYSFGANIFDVFPEVFFDEYPQGREEKMACIYGRANKQRCYKWCKRSYITHPENFAKYKVIIPKTNGSGAIGE	not soluble
MDLYYRPGSAPCRSVLMTAKALGVEFDKKTIINTRAREQFTPEYLKINPQHTIPTLHDHGFALWESRAIMVYLVEKYGKDDKLFPKDVQKQALINQRLYFDMGTLYKSFSEYYYPQIFLKKPANEENYKKIEVAFEFLNTFLEGQTYSAGGDYSLADIAFLATVSTFDVAGFDFKRYANVARWYENAKKLTPGWEENWAGCQEFRKYFDN	soluble
